Results on 8 substances are retold here after the supplement of paper PMC5998384.

For data set [1], the system named is HeLa Kyoto. Briefly: thermal stability score vs G1/S (z-score of summed log2 fold changes over temperatures); higher = more thermally stable than in G1/S.
In data set [2] the test system is HeLa Kyoto. Briefly: solubility in G1/S (NP-40 vs SDS abundance) (log2 ratio); higher = more soluble. As to conditions: cell cycle stage: G1/S.
Data set [3] relates to HeLa Kyoto. Briefly: solubility change mitosis vs G1/S (difference of NP-40 vs SDS log2 ratios) (log2 ratio difference); higher = more soluble in mitosis.
Data set [4] concerns HeLa Kyoto. In words: melting temperature (median over replicates), in situ; higher = more thermally stable.
Setting [5] is: cell cycle stage: early G1 (4.5 h after nocodazole release).
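For melting temperature (median over replicates), in situ in this document: HeLa Kyoto cells synchronized by double thymidine or nocodazole block, proteins quantified by TMT10plex mass spectrometry, three independent biological replicates.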
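For solubility change mitosis vs G1/S (difference of NP-40 vs SDS log2 ratios) in this document: synchronized HeLa Kyoto cells (double thymidine block for G1/S, nocodazole release for mitosis), protein amounts in NP-40 versus SDS lysates quantified by mass spectrometry, three biological replicates.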
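For solubility in G1/S (NP-40 vs SDS abundance) in this document: HeLa Kyoto cells arrested at G1/S by double thymidine block, proteins quantified by TMT10plex mass spectrometry in mild NP-40 versus SDS extracts, three biological replicates.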
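For thermal stability score vs G1/S (z-score of summed log2 fold changes over temperatures) in this document: synchronized HeLa Kyoto cells, proteins quantified by TMT10plex mass spectrometry, three biological replicates, mitosis taken 0.5 h after nocodazole release, G1/S directly after double thymidine block.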

Consider “MEGISNFKTPSKLSEKKKSVLCSTPTINIPASPFMQKLGFGTGVNVYLMKRSPRGLSHSPWAVKKINPICNDHYRSVYQKRLMDEAKILKSLHHPNIVGYRAFTEANDGSLCLAMEYGGEKSLNDLIEERYKASQDPFPAAIILKVALNMARGLKYLHQEKKLLHGDIKSSNVVIKGDFETIKICDVGVSLPLDENMTVTDPEACYIGTEPWKPKEAVEENGVITDKADIFAFGLTLWEMMTLSIPHINLSNDDDDEDKTFDESDFDDEAYYAALGTRPPINMEELDESYQKVIELFSVCTNEDPKDRPSAAHIVEALETDV [PBK]”, for which the thermal stability score in data set [1] (setting [5]) worked out at 1.05; in data set [1] (cell cycle stage: mitosis), 3.4. Further, in data set [2], the “solubility in G1/S (log2)” value was determined as 0.0996. Besides, the “solubility change mitosis (log2)” value in data set [3] was determined as 0.0797. In addition, the melting temperature in data set [4] (cell cycle stage: G1/S) came out at 47.7 °C; in data set [4] (cell cycle stage: mitosis) it was 47.6 °C.

For the substance “MRSIRSFANDDRHVMVKHSTIYPSPEELEAVQNMVSTVECALKHVSDWLDETNKGTKTEGETEVKKDEAGENYSKDQGGRTLCGVMRIGLVAKGLLIKDDMDLELVLMCKDKPTETLLNTVKDNLPIQIQKLTEEKYQVEQCVNEASIIIRNTKEPTLTLKVILTSPLIRDELEKKDGENVSMKDPPDLLDRQKCLNALASLRHAKWFQARANGLKSCVIVLRILRDLCNRVPTWAPLKGWPLELICEKSIGTCNRPLGAGEALRRVMECLASGILLPGGPGLHDPCERDPTDALSYMTIQQKEDITHSAQHALRLSAFGQIYKVLEMDPLPSSKPFQKYSWSVTDKEGAGSSALKRPFEDGLGDDKDPNKKMKRNLRKILDSKAIDLMNALMRLNQIRPGLQYKLLSQSGPVHAPVFTMSVDVDGTTYEASGPSKKTAKLHVAVKVLQAMGYPTGFDADIECMSSDEKSDNESKNETVSSNSSNNTGNSTTETSSTLEVRTQGPILTASGKNPVMELNEKRRGLKYELISETGGSHDKRFVMEVEVDGQKFRGAGPNKKVAKASAALAALEKLFSGPNAANNKKKKIIPQAKGVVNTAVSAAVQAVRGRGRGTLTRGAFVGATAAPGYIAPGYGTPYGYSTAAPAYGLPKRMVLLPVMKFPTYPVPHYSFF [STRBP]”, the figures for the thermal stability score in data set [1] (setting [5]) and in data set [1] (cell cycle stage: mitosis) were -0.506 and -0.00226, respectively. For the same substance, in data set [2], the “solubility in G1/S (log2)” value was -0.314. For the same substance, the “solubility change mitosis (log2)” value in data set [3] was -0.0522. The figures for the melting temperature in data set [4] (cell cycle stage: G1/S) and in data set [4] (cell cycle stage: mitosis) were 50.5 °C and 52.5 °C, respectively.

Regarding UTRN, the thermal stability score in data set [1] (setting [5]) amounted to 0.795; in data set [1] (cell cycle stage: mitosis) it was 1.84. Moreover, in data set [2], the “solubility in G1/S (log2)” value was 0.0106. Besides, in data set [3], the “solubility change mitosis (log2)” value is -0.109. In addition, the values for the melting temperature in data set [4] (cell cycle stage: G1/S) and in data set [4] (cell cycle stage: mitosis) were 49 °C and 48.5 °C, respectively.

With “METFDPTELPELLKLYYRRLFPYSQYYRWLNYGGVIKNYFQHREFSFTLKDDIYIRYQSFNNQSDLEKEMQKMNPYKIDIGAVYSHRPNQHNTVKLGAFQAQEKELVFDIDMTDYDDVRRCCSSADICPKCWTLMTMAIRIIDRALKEDFGFKHRLWVYSGRRGVHCWVCDESVRKLSSAVRSGIVEYLSLVKGGQDVKKKVHLSEKIHPFIRKSINIIKKYFEEYALVNQDILENKESWDKILALVPETIHDELQQSFQKSHNSLQRWEHLKKVASRYQNNIKNDKYGPWLEWEIMLQYCFPRLDINVSKGINHLLKSPFSVHPKTGRISVPIDLQKVDQFDPFTVPTISFICRELDAISTNEEEKEENEAESDVKHRTRDYKKTSLAPYVKVFEHFLENLDKSRKGELLKKSDLQKDF [PRIM1]”, the values for the thermal stability score in data set [1] (setting [5]) and in data set [1] (cell cycle stage: mitosis) were 0.672 and 1.37, respectively. Also, the “solubility in G1/S (log2)” value in data set [2] was -0.144. The “solubility change mitosis (log2)” value in data set [3] is -0.247. The melting temperature in data set [4] (cell cycle stage: G1/S) was determined as 48.8 °C; in data set [4] (cell cycle stage: mitosis), 49.6 °C.

Take GMPS: the thermal stability score in data set [1] (setting [5]) was found to be 2.38; in data set [1] (cell cycle stage: mitosis), 1.21. For the same substance, the “solubility in G1/S (log2)” value in data set [2] was found to be 0.0167. Moreover, the “solubility change mitosis (log2)” value in data set [3] is -0.148. In addition, the melting temperature in data set [4] (cell cycle stage: G1/S) was 51.1 °C; in data set [4] (cell cycle stage: mitosis), 51.6 °C.

For PDE4DIP, the thermal stability score in data set [1] (setting [5]) is 0.534; in data set [1] (cell cycle stage: mitosis), 0.401. Further, the “solubility in G1/S (log2)” value in data set [2] came out at 0.0173. The “solubility change mitosis (log2)” value in data set [3] was 0.0943. In data set [4] (cell cycle stage: G1/S), this substance came in with a melting temperature of 51.6 °C.

In the case of “MAAAGGARLLRAASAVLGGPAGRWLHHAGSRAGSSGLLRNRGPGGSAEASRSLSVSARARSSSEDKITVHFINRDGETLTTKGKVGDSLLDVVVENNLDIDGFGACEGTLACSTCHLIFEDHIYEKLDAITDEENDMLDLAYGLTDRSRLGCQICLTKSMDNMTVRVPETVADARQSIDVGKTS [FDX1]”, the thermal stability score is -0.691 in data set [1] (setting [5]) and -1.73 in data set [1] (cell cycle stage: mitosis). For the same substance, the “solubility in G1/S (log2)” value in data set [2] is 0.338. Also, the “solubility change mitosis (log2)” value in data set [3] was -0.0683. The melting temperature in data set [4] (cell cycle stage: G1/S) is 53 °C; in data set [4] (cell cycle stage: mitosis) it was 53.9 °C.

For AGL, the values for the thermal stability score in data set [1] (setting [5]) and in data set [1] (cell cycle stage: mitosis) were -0.229 and -0.757, respectively. Besides, in data set [2], the “solubility in G1/S (log2)” value is -0.215. The “solubility change mitosis (log2)” value in data set [3] is -0.204. Further, the melting temperature turned out to be 51.1 °C in data set [4] (cell cycle stage: G1/S) and 50.6 °C in data set [4] (cell cycle stage: mitosis).
